In patent US11180762B2, “Methods and compositions for the treatment of cancer” (CHILDREN'S MEDICAL CENTER CORPORATION, priority 2014, dated 2021):
Entries after “also recorded” stand apart in the source; their conditions may differ.

System: breast cancer cell lines
Assay: Colony formation assay
Assay type: cell-based, human
Details: AsiC 4 uM, paclitaxel 100 nM
Method: For colony formation assay, 1,000 viable cells were treated for 6 h in round bottom 96-well plates and then transferred to 10-cm plates in serum-containing medium. Medium was replaced every 3 d. After 8-14 d, cells were fixed in methanol (−20 C) and stained with crystal violet. For sphere formation assay, 1,000/ml viable cells were treated for 6 h in round bottom 96-well plates and then cultured in suspension in serum-free DMEM/F12 1:1 (Invitrogen), supplemented with EGF (20 ng/ml, BD Biosciences), B27 (1:50, Invitrogen), 0.4% bovine serum albumin (Sigma) and 4 μg/ml insulin (Sigma). Spheres were counted after 1 or 2 weeks.

[1] = listed as EpCAM-AsiC targeting PLK1

B1: PLK1 EpCAM-AsiC: EpCAM aptamer linked by U-U-U to PLK1 siRNA sense strand (SEQ ID NO: 1), annealed to antisense strand (SEQ ID NO: 2) (nucleic acid)
sense: GCGACUGGUUACCCGGUCGUUUUGAAGAAGAUCACCCUCCUUATT
antisense: UAAGGAGGGUGAUCUUCUUCATT
modifications: DNA at T, 2'-fluoro at CU, RNA at AG, backbone not given here; EpCAM aptamer fused to sense strand
[1]
  colony formation, EpCAM+ basal-A and luminal lines: lost the ability to form colonies; also recorded: only eliminated colony formation in luminal (MCF7) and basal A (HCC1954) cells
  colony formation, EpCAM− basal-B lines: did not effect colony formation
Listed as PLK1 EpCAM-AsiCs
  colony formation, EpCAM+ basal-A and luminal lines: more strongly inhibited colony and mammosphere formation of EpCAM+ basal-A TNBCs and luminal cell lines than paclitaxel; also recorded: eliminated mammosphere and colony formation; also recorded: more strongly inhibited colony and mammosphere formation of multiple EpCAM+ basal-like TNBCs and a luminal cell line than paclitaxel
  colony formation, EpCAM− basal-B lines: inactive against EpCAM− basal-B TNBCs
